These results are taken from article PMC9636928 (Proceedings of the National Academy of Sciences of the …, 2022).

The data set deals with the molecule itself. The experiment in a line: cryo-EM structure.

B1: Transmembrane protein 175 (TMEM175), human (natural protein)
chain: MSQPRTPEQALDTPGDCPPGRRDEDAGEGIQCSQRMLSFSDALLSIIATVMILPVTHTEISPEQQFDRSVQRLLATRIAVYLMTFLIVTVAWAAHTRLFQVVGKTDDTLALLNLACMMTITFLPYTFSLMVTFPDVPLGIFLFCVCVIAIGVVQALIVGYAFHFPHLLSPQIQRSAHRALYRRHVLGIVLQGPALCFAAAIFSLFFVPLSYLLMVTVILLPYVSKVTGWCRDRLLGHREPSAHPVEVFSFDLHEPLSKERVEAFSDGVYAIVATLLILDICEDNVPDPKDVKERFSGSLVAALSATGPRFLAYFGSFATVGLLWFAHHSLFLHVRKATRAMGLLNTLSLAFVGGLPLAYQQTSAFARQPRDELERVRVSCTIIFLASIFQLAMWTTALLHQAETLQPSVWFGGREHVLMFAKLALYPCASLLAFASTCLLSRFSVGIFHLMQIAVPCAFLLLRLLVGLALATLRVLRGLARPEHPPPAPTGQDDPQSQLLPAPC
Turning to B1, the binding result is given as “binds”.
